To fix the notation:
B1: [K^14(PAM), (Dpr^16,E^21)lac, N-Me-K^46]ADM(14-52) (peptide)
peptide: K(Palmitoyl)G[Dap]RFGTETVQKLAHQIYQFTDKDKDNVAPRS[NMeK]ISPQGY-NH2
modifications: lactam 3-8; N-terminus assumed
SMILES: CCCCCCCCCCCCCCCC(=O)NCCCC[C@H](N)C(=O)NCC(=O)N[C@H]1CNC(=O)CC[C@@H](C(=O)N[C@H](C(=O)N[C@H](C(=O)N[C@@H](CCC(N)=O)C(=O)N[C@@H](CCCCN)C(=O)N[C@@H](CC(C)C)C(=O)N[C@@H](C)C(=O)N[C@@H](Cc2c[nH]cn2)C(=O)N[C@@H](CCC(N)=O)C(=O)N[C@H](C(=O)N[C@@H](Cc2ccc(O)cc2)C(=O)N[C@@H](CCC(N)=O)C(=O)N[C@@H](Cc2ccccc2)C(=O)N[C@H](C(=O)N[C@@H](CC(=O)O)C(=O)N[C@@H](CCCCN)C(=O)N[C@@H](CC(=O)O)C(=O)N[C@@H](CCCCN)C(=O)N[C@@H](CC(=O)O)C(=O)N[C@@H](CC(N)=O)C(=O)N[C@H](C(=O)N[C@@H](C)C(=O)N2CCC[C@H]2C(=O)N[C@@H](CCCNC(=N)N)C(=O)N[C@@H](CO)C(=O)N(C)[C@@H](CCCCN)C(=O)N[C@H](C(=O)N[C@@H](CO)C(=O)N2CCC[C@H]2C(=O)N[C@@H](CCC(N)=O)C(=O)NCC(=O)N[C@@H](Cc2ccc(O)cc2)C(N)=O)[C@@H](C)CC)C(C)C)[C@@H](C)O)[C@@H](C)CC)C(C)C)[C@@H](C)O)NC(=O)[C@H]([C@@H](C)O)NC(=O)CNC(=O)[C@H](Cc2ccccc2)NC(=O)[C@H](CCCNC(=N)N)NC1=O
B2: [G^14, (D^16, Dab^21)lac]ADM(14-52) (peptide)
peptide: GGDRFGT[Dab]TVQKLAHQIYQFTDKDKDNVAPRSKISPQGY-NH2
modifications: lactam 3-8
B3: [G^14, (Dpr^16, D^21)lac]ADM(14-52) (peptide)
peptide: GG[Dap]RFGTDTVQKLAHQIYQFTDKDKDNVAPRSKISPQGY-NH2
modifications: lactam 3-8; N-terminus assumed
SMILES: CC[C@H](C)[C@H](NC(=O)[C@H](CCC(N)=O)NC(=O)[C@H](Cc1c[nH]cn1)NC(=O)[C@H](C)NC(=O)[C@H](CC(C)C)NC(=O)[C@H](CCCCN)NC(=O)[C@H](CCC(N)=O)NC(=O)[C@@H](NC(=O)[C@@H](NC(=O)[C@@H]1CC(=O)NC[C@H](NC(=O)CNC(=O)CN)C(=O)N[C@@H](CCCNC(=N)N)C(=O)N[C@@H](Cc2ccccc2)C(=O)NCC(=O)N[C@@H]([C@@H](C)O)C(=O)N1)[C@@H](C)O)C(C)C)C(=O)N[C@@H](Cc1ccc(O)cc1)C(=O)N[C@@H](CCC(N)=O)C(=O)N[C@@H](Cc1ccccc1)C(=O)N[C@H](C(=O)N[C@@H](CC(=O)O)C(=O)N[C@@H](CCCCN)C(=O)N[C@@H](CC(=O)O)C(=O)N[C@@H](CCCCN)C(=O)N[C@@H](CC(=O)O)C(=O)N[C@@H](CC(N)=O)C(=O)N[C@H](C(=O)N[C@@H](C)C(=O)N1CCC[C@H]1C(=O)N[C@@H](CCCNC(=N)N)C(=O)N[C@@H](CO)C(=O)N[C@@H](CCCCN)C(=O)N[C@H](C(=O)N[C@@H](CO)C(=O)N1CCC[C@H]1C(=O)N[C@@H](CCC(N)=O)C(=O)NCC(=O)N[C@@H](Cc1ccc(O)cc1)C(N)=O)[C@@H](C)CC)C(C)C)[C@@H](C)O
B4: [G^14, (Orn^16, D^21)lac]ADM(14-52) (peptide)
peptide: GG[Orn]RFGTDTVQKLAHQIYQFTDKDKDNVAPRSKISPQGY-NH2
modifications: lactam 3-8; N-terminus assumed
SMILES: CC[C@H](C)[C@H](NC(=O)[C@H](CCC(N)=O)NC(=O)[C@H](Cc1c[nH]cn1)NC(=O)[C@H](C)NC(=O)[C@H](CC(C)C)NC(=O)[C@H](CCCCN)NC(=O)[C@H](CCC(N)=O)NC(=O)[C@@H](NC(=O)[C@@H](NC(=O)[C@@H]1CC(=O)NCCC[C@H](NC(=O)CNC(=O)CN)C(=O)N[C@@H](CCCNC(=N)N)C(=O)N[C@@H](Cc2ccccc2)C(=O)NCC(=O)N[C@@H]([C@@H](C)O)C(=O)N1)[C@@H](C)O)C(C)C)C(=O)N[C@@H](Cc1ccc(O)cc1)C(=O)N[C@@H](CCC(N)=O)C(=O)N[C@@H](Cc1ccccc1)C(=O)N[C@H](C(=O)N[C@@H](CC(=O)O)C(=O)N[C@@H](CCCCN)C(=O)N[C@@H](CC(=O)O)C(=O)N[C@@H](CCCCN)C(=O)N[C@@H](CC(=O)O)C(=O)N[C@@H](CC(N)=O)C(=O)N[C@H](C(=O)N[C@@H](C)C(=O)N1CCC[C@H]1C(=O)N[C@@H](CCCNC(=N)N)C(=O)N[C@@H](CO)C(=O)N[C@@H](CCCCN)C(=O)N[C@H](C(=O)N[C@@H](CO)C(=O)N1CCC[C@H]1C(=O)N[C@@H](CCC(N)=O)C(=O)NCC(=O)N[C@@H](Cc1ccc(O)cc1)C(N)=O)[C@@H](C)CC)C(C)C)[C@@H](C)O
B5: [G^14, (E^16, Dpr^21)lac]ADM(14-52) (peptide)
peptide: GGERFGT[Dap]TVQKLAHQIYQFTDKDKDNVAPRSKISPQGY-NH2
modifications: lactam 3-8
B6: [G^14, (Dab^16, D^21)lac]ADM(14-52) (peptide)
peptide: GG[Dab]RFGTDTVQKLAHQIYQFTDKDKDNVAPRSKISPQGY-NH2
modifications: lactam 3-8; N-terminus assumed
SMILES: CC[C@H](C)[C@H](NC(=O)[C@H](CCC(N)=O)NC(=O)[C@H](Cc1c[nH]cn1)NC(=O)[C@H](C)NC(=O)[C@H](CC(C)C)NC(=O)[C@H](CCCCN)NC(=O)[C@H](CCC(N)=O)NC(=O)[C@@H](NC(=O)[C@@H](NC(=O)[C@@H]1CC(=O)NCC[C@H](NC(=O)CNC(=O)CN)C(=O)N[C@@H](CCCNC(=N)N)C(=O)N[C@@H](Cc2ccccc2)C(=O)NCC(=O)N[C@@H]([C@@H](C)O)C(=O)N1)[C@@H](C)O)C(C)C)C(=O)N[C@@H](Cc1ccc(O)cc1)C(=O)N[C@@H](CCC(N)=O)C(=O)N[C@@H](Cc1ccccc1)C(=O)N[C@H](C(=O)N[C@@H](CC(=O)O)C(=O)N[C@@H](CCCCN)C(=O)N[C@@H](CC(=O)O)C(=O)N[C@@H](CCCCN)C(=O)N[C@@H](CC(=O)O)C(=O)N[C@@H](CC(N)=O)C(=O)N[C@H](C(=O)N[C@@H](C)C(=O)N1CCC[C@H]1C(=O)N[C@@H](CCCNC(=N)N)C(=O)N[C@@H](CO)C(=O)N[C@@H](CCCCN)C(=O)N[C@H](C(=O)N[C@@H](CO)C(=O)N1CCC[C@H]1C(=O)N[C@@H](CCC(N)=O)C(=O)NCC(=O)N[C@@H](Cc1ccc(O)cc1)C(N)=O)[C@@H](C)CC)C(C)C)[C@@H](C)O
B7: [G^14, (D^16, Orn^21)lac]ADM(14-52) (peptide)
peptide: GGDRFGT[Orn]TVQKLAHQIYQFTDKDKDNVAPRSKISPQGY-NH2
modifications: lactam 3-8
B8: [G^14, (Dpr^16, E^21)lac]ADM(14-52) (peptide)
peptide: GG[Dap]RFGTETVQKLAHQIYQFTDKDKDNVAPRSKISPQGY-NH2
modifications: lactam 3-8; N-terminus assumed
SMILES: CC[C@H](C)[C@H](NC(=O)[C@H](CCC(N)=O)NC(=O)[C@H](Cc1c[nH]cn1)NC(=O)[C@H](C)NC(=O)[C@H](CC(C)C)NC(=O)[C@H](CCCCN)NC(=O)[C@H](CCC(N)=O)NC(=O)[C@@H](NC(=O)[C@@H](NC(=O)[C@@H]1CCC(=O)NC[C@H](NC(=O)CNC(=O)CN)C(=O)N[C@@H](CCCNC(=N)N)C(=O)N[C@@H](Cc2ccccc2)C(=O)NCC(=O)N[C@@H]([C@@H](C)O)C(=O)N1)[C@@H](C)O)C(C)C)C(=O)N[C@@H](Cc1ccc(O)cc1)C(=O)N[C@@H](CCC(N)=O)C(=O)N[C@@H](Cc1ccccc1)C(=O)N[C@H](C(=O)N[C@@H](CC(=O)O)C(=O)N[C@@H](CCCCN)C(=O)N[C@@H](CC(=O)O)C(=O)N[C@@H](CCCCN)C(=O)N[C@@H](CC(=O)O)C(=O)N[C@@H](CC(N)=O)C(=O)N[C@H](C(=O)N[C@@H](C)C(=O)N1CCC[C@H]1C(=O)N[C@@H](CCCNC(=N)N)C(=O)N[C@@H](CO)C(=O)N[C@@H](CCCCN)C(=O)N[C@H](C(=O)N[C@@H](CO)C(=O)N1CCC[C@H]1C(=O)N[C@@H](CCC(N)=O)C(=O)NCC(=O)N[C@@H](Cc1ccc(O)cc1)C(N)=O)[C@@H](C)CC)C(C)C)[C@@H](C)O

Bridge positions count the residues as written; N and C are the ends. Square brackets hold non-standard residues; d marks the D form. Ends that are not written are not given here. * marks the point of attachment. Palmitoyl = CCCCCCCCCCCCCCCC(=O)*; NMeK = CN[C@@H](CCCCN)C(=O)O; Orn = NCCC[C@H](N)C(=O)O; Dab = NCC[C@H](N)C(=O)O; Dap = NC[C@H](N)C(=O)O Bounds are passed on as bounds.

The values that follow come from patent US20180022780A1 (Bayer, published 2018).

Chain of human adrenomedullin-receptor (Q16602 23-461): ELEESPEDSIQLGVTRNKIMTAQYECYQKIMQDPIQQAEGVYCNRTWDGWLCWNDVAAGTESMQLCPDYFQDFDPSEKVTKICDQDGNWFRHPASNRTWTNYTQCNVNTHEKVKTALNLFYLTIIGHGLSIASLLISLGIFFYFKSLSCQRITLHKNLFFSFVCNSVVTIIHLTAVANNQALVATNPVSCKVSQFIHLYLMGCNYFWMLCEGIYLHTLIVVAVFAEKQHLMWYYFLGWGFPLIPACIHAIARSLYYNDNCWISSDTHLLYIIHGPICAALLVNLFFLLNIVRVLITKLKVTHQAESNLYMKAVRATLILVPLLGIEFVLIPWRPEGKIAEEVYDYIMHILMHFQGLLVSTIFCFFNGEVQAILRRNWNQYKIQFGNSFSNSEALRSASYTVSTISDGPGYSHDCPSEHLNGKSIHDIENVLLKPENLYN

In one test the target is CLR fused to EYFP with RAMP2 fused to ECFP. The experiment in a line: cell-based or functional assay.
Chain of CLR fused to EYFP with RAMP2 fused to ECFP (Q16602 whole entry, chain 1 of 2, the tested form may be a part): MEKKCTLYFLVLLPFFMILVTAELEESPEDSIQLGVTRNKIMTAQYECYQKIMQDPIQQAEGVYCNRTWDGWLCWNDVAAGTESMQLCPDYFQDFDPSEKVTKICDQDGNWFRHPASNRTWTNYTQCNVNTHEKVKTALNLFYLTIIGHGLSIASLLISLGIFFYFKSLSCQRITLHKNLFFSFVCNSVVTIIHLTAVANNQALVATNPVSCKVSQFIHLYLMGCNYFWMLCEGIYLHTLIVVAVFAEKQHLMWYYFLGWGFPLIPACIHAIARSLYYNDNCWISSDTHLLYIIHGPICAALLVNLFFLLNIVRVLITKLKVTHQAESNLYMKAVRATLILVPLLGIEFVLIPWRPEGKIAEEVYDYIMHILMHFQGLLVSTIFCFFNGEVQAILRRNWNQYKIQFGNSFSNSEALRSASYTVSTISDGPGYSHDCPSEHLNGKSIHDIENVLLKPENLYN
Chain of CLR fused to EYFP with RAMP2 fused to ECFP (O60895 whole entry, chain 2 of 2, further chain, the tested form may be a part): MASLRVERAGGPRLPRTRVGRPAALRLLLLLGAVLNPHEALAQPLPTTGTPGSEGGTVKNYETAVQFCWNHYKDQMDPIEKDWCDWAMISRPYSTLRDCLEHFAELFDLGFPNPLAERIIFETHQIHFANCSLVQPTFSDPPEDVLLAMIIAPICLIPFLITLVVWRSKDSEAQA
As for B1, the “EC50 [nM], cAMP assay (CRE-luciferase luminescence, HEK293 cells)” value (“EC50 [nM], cAMP assay” below) amounted to 3.4 nM.
In the case of B2, the “EC50 [nM], cAMP assay” value is 21 nM.
With B3, the “EC50 [nM], cAMP assay” value is 67 nM.
Same read-out and setting: the value for B4 was more than 1000 nM.
Still for that read-out and setting: the value for B5 was 303 nM.
On the same count and under the same terms, for B6 the value was 112 nM; for B7, 20 nM.
As to B8, the “EC50 [nM], cAMP assay” value is 2.9 nM.

Another test addresses human adrenomedullin-receptor (human, UniProt Q16602 23-461). The experiment in a line: cell-based or functional assay.
As for B1, the “EC50 [nM], aequorin luminescence of CHO adrenomedullin-receptor reporter cells” value worked out at 56 nM.
Same read-out and setting: the value for B2 was 21.1 nM; that for B3 was 49.6 nM.
Same read-out and setting: for B4 the value was more than 1000 nM.
As for B5, the “EC50 [nM], aequorin luminescence of CHO adrenomedullin-receptor reporter cells” value was more than 1000 nM.
On the same count and under the same terms, the value for B6 was more than 1000 nM; that for B7 was 17.3 nM; that for B8 was 5.26 nM.
